Measured values reported in patent publication US20230136252A1 (NANJING LEGEND BIOTECH, published 2023).

T1: recombinant human GPC2-His protein (human, UniProt Q8N158 24-554, limits assumed)
T1 construct: Bought protein; The SPR paragraph gives no catalogue number for GPC2-His; also called recombinant Human Glypican 2 Protein; recombinant human GPC2 protein; not shown: His tag
T1 sequence (looked up): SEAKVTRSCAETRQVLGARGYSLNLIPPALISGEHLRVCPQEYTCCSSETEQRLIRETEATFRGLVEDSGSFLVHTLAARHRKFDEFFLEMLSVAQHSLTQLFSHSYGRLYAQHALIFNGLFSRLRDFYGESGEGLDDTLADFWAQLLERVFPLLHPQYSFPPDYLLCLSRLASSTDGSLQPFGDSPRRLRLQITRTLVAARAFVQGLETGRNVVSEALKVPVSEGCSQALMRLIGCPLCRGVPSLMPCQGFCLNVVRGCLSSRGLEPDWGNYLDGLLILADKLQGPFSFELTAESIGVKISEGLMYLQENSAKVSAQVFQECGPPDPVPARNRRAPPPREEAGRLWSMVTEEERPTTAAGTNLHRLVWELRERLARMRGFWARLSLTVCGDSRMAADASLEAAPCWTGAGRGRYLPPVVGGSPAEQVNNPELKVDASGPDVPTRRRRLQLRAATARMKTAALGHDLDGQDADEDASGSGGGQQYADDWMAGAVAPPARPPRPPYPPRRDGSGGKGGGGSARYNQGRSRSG

T2: recombinant human GPC6-His (human, UniProt Q9Y625 24-529, limits assumed)
T2 construct: Bought protein; also called RD System Cat #2845-GP; not shown: His tag
T2 sequence (looked up): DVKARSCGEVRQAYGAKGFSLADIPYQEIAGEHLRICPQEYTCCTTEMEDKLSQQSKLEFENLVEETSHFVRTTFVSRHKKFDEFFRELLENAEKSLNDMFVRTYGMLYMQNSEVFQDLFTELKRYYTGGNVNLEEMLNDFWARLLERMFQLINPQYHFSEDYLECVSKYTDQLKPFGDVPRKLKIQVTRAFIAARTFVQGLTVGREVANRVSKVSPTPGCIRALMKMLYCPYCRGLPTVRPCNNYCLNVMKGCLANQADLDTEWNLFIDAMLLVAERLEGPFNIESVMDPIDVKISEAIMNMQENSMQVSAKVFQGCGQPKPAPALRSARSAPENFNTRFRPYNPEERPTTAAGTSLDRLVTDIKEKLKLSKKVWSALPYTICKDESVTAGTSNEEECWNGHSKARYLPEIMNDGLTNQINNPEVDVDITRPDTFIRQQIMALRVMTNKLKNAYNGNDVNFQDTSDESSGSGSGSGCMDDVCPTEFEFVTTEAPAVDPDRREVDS


Assays:
[1] = molecular target: T1, recombinant human GPC2-His protein; test: SPR, Biacore T200, GPC2-His amine-coupled to CM5 chip, VHH-hIgG1Fc as analyte, 1:1 model
Procedure: Each of the exemplary anti-GPC2 VHH sequences was cloned into a vector comprising a human IgG1Fc fragment (hlgG1Fc) sequence to facilitate recombinant expression of anti-GPC2 VHH-hlgG1Fc. Recombinant proteins were obtained and purified for SPR assays. The affinity of each anti-GPC2 VHH-hIgG1Fc for GPC2 was determined by SPR using a BIACORE® T200 analytical system (GE Healthcare). Briefly, recombinant human GPC2-His protein was covalently coupled to a CM5(s) sensor chip using an amine coupling kit. Exemplary VHH-hIgG1Fc proteins were serially diluted in running buffer (10 mM HEPES, 150 mM NaCl, 3 mM EDTA, 0.05% Tween-20, pH 7.4) and injected over the chip cell at a flowrate of 100 μL/min for 100 seconds followed by buffer-only injection for 300 seconds to allow for antibody dissociation. The dissociation […] (KD) were determined using the BIACORE® T200 evaluation software version 3.0 (Langmuir binding, local fit, 1:1 binding model).

[2] = molecular target: T3, recombinant human GPC3-His (human, UniProt P51654 25-559); test: ELISA, plate coated with 2 ug/mL rhGPC3-his, VHH-hIgG1Fc detected with HRP goat anti-human IgG, OD450
T3 construct: Bought protein; also called ACRO Cat #GP3-H5223; not shown: His tag
T3 sequence (P51654 25-559 limits assumed): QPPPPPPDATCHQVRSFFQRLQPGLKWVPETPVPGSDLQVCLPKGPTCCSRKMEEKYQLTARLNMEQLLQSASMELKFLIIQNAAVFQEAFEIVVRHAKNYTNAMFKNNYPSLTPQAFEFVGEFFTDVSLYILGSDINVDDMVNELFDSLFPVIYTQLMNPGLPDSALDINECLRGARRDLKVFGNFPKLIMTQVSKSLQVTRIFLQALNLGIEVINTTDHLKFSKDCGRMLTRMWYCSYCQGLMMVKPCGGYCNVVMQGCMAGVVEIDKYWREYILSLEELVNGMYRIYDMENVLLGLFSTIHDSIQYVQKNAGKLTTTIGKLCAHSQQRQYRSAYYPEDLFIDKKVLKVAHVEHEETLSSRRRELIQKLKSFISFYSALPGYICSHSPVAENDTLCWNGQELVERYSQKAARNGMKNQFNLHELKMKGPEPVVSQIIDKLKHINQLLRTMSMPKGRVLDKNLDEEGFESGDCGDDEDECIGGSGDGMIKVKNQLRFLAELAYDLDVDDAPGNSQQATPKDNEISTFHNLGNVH
Procedure: (§1) To evaluate the specificity of humanized anti-GPC2 VHH5 to recombinant human GPC2 protein, an ELISA-based binding assay was conducted to determine the differential target proteins binding of anti-GPC2 VHH5. Briefly, microplates were coated with 2 μg/mL recombinant human GPC1-His (RD System, Cat #4519-GP), GPC2-His (RD System, Cat #2304-GP), GPC3-His (ACRO, Cat #GP3-H5223), GPC4-Fc (RD System, Cat #9195-GP), GPC5-His (RD System, Cat #2607-G5/CF), GPC6-His (RD System, Cat #2845-GP) or recombinant mouse GPC2-His (RD System, Cat #2355-GP) proteins. Recombinant human protein coated plates were blocked with skim milk. Serially diluted humanized VHH-hIgG1Fc recombinant antibodies were added to each well of the plates and incubated at 4° C. for 1.5 h. Samples were further labelled with HRP-conjugated goat anti human IgG (H+L) secondary antibody (Genescript, Cat #A00166-1) and signal was developed with 3,3′,5,5′-Tetramethylbenzidine (TMB) substrate according to manufacturer's instruction. For the GPC4, VHH-His recombinant antibodies and anti-His tag secondary antibody (Genescript, Cat #A00612) were added to the GPC4-Fc coated plates instead. Optic density at 450 nm was measured by plate reader.

[3] = molecular target: T2, recombinant human GPC6-His; test: ELISA, plate coated with 2 ug/mL rhGPC6-his, VHH-hIgG1Fc detected with HRP goat anti-human IgG, OD450
Procedure: as §1

Binder | Kd [1] | koff [1] | kon [1] | binding result [2] | binding result [3]
AS70950VH6-hIgG1Fc (Fc fusion, also called anti-GPC2 VHH-hIgG1Fc; not shown: human IgG1 Fc fragment (hIgG1Fc)) EVQLVESGGGLVQPGGSLRLSCAISEFTYKNTCVGWFRQAPGKGREGVAAIDSDGNTNYVDSVKGRFTISQDNSKNTVYLQMNSLRAEDTAMYYCAAGAYCGRLLLWIGNYAYWGQGTLVTVSS | 0.27 nM | 0.00011 s⁻¹ | 390000 M⁻¹ s⁻¹ | no binding (tested: about 300 nM) | no binding (tested: about 300 nM)
AS79236VH6-hIgG1Fc (Fc fusion, also called anti-GPC2 VHH-hIgG1Fc; not shown: human IgG1 Fc fragment (hIgG1Fc)) EVQLVESGGGLVQPGGSLRLSCAVSGYTYSSYCMAWFRQAPGKGLEGVASIDAGGRTTYVDSVKGRFTISKDNAKNSLYLQMNSLRAEDTAMYYCAVDVRTRCGGTWDGEAVYFPYWGQGTLVTVSS | 0.37 nM | 0.00019 s⁻¹ | 530000 M⁻¹ s⁻¹ | no binding (tested: about 300 nM) | no binding (tested: about 300 nM)
AS78117VH4-hIgG1Fc (Fc fusion, also called anti-GPC2 VHH-hIgG1Fc; not shown: human IgG1 Fc fragment (hIgG1Fc)) EVQLVESGGGLVQPGGSLRLSCIVSRYTYATYSMAWFRQAPGKGLEGVSGLDSVGATGYAESVKGRFTISRDNSKNTLYLQMNSLRAEDTAVYYCVVDPASAKVTYGSWSTPSYAYWGQGTLVTVSS | 0.82 nM | 0.00017 s⁻¹ | 200000 M⁻¹ s⁻¹ | no binding (tested: about 300 nM) | no binding (tested: about 300 nM)
